The record followed here is PMC10522637.

The assay deals with human Toll-like receptor 5 (3xFlag-hTLR5) (human) (UniProt O60602).
Chain of UniProt O60602 (O60602 21-858): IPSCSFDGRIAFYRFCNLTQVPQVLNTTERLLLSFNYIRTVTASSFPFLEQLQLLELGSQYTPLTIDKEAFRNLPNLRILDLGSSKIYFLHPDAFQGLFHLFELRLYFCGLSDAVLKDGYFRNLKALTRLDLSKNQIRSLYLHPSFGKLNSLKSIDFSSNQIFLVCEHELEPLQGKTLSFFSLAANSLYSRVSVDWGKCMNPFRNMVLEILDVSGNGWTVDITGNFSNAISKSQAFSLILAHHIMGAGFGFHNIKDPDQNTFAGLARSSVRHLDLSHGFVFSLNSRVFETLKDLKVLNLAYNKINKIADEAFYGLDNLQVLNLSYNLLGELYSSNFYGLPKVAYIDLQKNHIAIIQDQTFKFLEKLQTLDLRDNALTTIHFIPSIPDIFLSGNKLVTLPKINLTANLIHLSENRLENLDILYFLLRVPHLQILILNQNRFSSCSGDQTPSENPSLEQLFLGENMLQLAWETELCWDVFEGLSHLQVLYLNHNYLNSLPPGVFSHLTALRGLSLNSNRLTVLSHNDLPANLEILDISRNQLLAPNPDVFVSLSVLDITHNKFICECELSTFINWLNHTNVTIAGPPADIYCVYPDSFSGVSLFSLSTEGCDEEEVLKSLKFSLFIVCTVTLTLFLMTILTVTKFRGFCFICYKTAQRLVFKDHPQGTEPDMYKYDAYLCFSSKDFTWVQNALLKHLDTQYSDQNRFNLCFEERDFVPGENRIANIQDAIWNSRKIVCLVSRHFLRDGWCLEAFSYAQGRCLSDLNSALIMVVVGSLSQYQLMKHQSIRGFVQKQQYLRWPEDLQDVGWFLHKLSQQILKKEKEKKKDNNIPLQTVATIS
“PNGase F-treated (deglycosylated) eFlaB (natural protein)” had an EC50 of TLR5-dependent NF-κB stimulating activity, HEK-Blue hTLR5 reporter cells of 3.88 nM.

Substance “eukaryotic-expressed Vibrio vulnificus FlaB (eFlaB) (natural protein)” yielded an EC50 of TLR5-dependent NF-κB stimulating activity, HEK-Blue hTLR5 reporter cells of 13.8 nM.

Take “prokaryotic-expressed Vibrio vulnificus FlaB (pFlaB) (natural protein)”: the EC50 of TLR5-dependent NF-κB stimulating activity, HEK-Blue hTLR5 reporter cells stood at 3.32 nM.
